Measurements published in publication PMC11633101 (2024).

Molecular target: BVDV E2 protein with 6×his tag, purified from 293F cells (bovine viral diarrhea virus (BVDV), UniProt P19711 693-1066)
Experiment: SPR

B1: bovine CD46 protein (MedChemExpress) (receptor)
chain: CDDPPRFVSMKPQGTLKPSYSPGEQIVYECHLGFQPVTPGQVLALVCQDNNTWSSLQEGCKKRRCPTLADPTNGQVILVNGSTEFGSEVHYVCNNGYYLLGTNISYCEVSSGTGVNWSDNPPTCEKILCQPPPEIQNGKYTNSHKDVFEYNEVVTYSCDPSNGPDEYSLVGESKLTCIGNGEWSSQPPQCKVVKCVYPAIEHGTIVSGFGPKYYYKATVVLKCNEGFNLYGNSVVVCGENSTWEPELPKCIKGHPPRPTDASPPNGAEG
Q: Which Kd does the source give for B1 here?
A: 75.1 nM
